Results taken from paper PMC11355779.

What was measured:
[1] = target: ClC-3c, C-terminally GFP-tagged (mouse)
[2] = target: ClC-3c, C-terminally GFP-tagged (mouse); assay: FRET or BRET; FLIM-FRET in co-transfected HEK293T cells 24 h after transfection; GFP donor (488 nm), mCherry acceptor; efficiency from the donor lifetime (phasor plot) against donor-only cells

Sequence of ClC-3c, C-terminally GFP-tagged (mouse) (P51791 whole entry): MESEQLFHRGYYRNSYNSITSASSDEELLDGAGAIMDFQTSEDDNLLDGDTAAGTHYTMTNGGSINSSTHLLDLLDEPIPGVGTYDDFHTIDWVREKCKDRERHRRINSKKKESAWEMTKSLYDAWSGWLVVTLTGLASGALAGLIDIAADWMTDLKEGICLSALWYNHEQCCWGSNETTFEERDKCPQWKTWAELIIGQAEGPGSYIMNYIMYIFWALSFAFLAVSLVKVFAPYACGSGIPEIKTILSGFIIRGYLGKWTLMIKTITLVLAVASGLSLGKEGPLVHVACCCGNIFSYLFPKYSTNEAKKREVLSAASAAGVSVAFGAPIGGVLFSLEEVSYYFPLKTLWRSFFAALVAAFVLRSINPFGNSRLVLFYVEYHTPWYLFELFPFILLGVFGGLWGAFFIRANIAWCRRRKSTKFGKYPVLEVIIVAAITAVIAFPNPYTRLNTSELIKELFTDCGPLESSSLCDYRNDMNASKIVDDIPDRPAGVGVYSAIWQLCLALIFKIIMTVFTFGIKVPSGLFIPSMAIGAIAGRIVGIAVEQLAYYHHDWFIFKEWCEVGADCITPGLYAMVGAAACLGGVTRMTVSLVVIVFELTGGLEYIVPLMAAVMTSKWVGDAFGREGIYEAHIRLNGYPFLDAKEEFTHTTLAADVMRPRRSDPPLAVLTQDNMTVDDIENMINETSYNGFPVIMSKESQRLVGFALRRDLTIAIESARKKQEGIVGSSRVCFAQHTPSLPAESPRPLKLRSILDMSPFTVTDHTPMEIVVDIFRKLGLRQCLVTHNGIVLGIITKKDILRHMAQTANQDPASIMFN

Substance: TMEM9 Domain Family Member B (TMEM9B), C-terminally mCherry-tagged (from UniProt Q9JJR8 35-199) (natural protein)
- fast time constant of ClC-3 current activation in HEK cells co-transfected with TMEM9B (double exponential fit, 500 ms pulses) [1]: 21 ms
- reduction of ClC-3 activity (whole-cell currents) in HEK cells by co-expression of TMEM9B [1]: 70%
- slow time constant of ClC-3 current activation in HEK cells co-transfected with TMEM9B (double exponential fit, 500 ms pulses) [1]: 120 ms
- FRET efficiency [2]: 0.17
